Measurements as given in PMC5386385, “DRP-1 is required for BH3 mimetic-mediated mitochondrial fragmentation and apoptosis” (Cell Death & Disease, 2017).

How the values were obtained:
[1] = target: WT MCL-1 fusion protein (N-terminal His6-tag fused to amino acids Glu173-Arg329, containing the BH3, BH1 and BH2 domains) (human) (UniProt Q07820); experiment: differential scanning fluorimetry (thermal shift assay); purified MCL-1 proteins (10 uM) with or without the indicated concentrations of ligand, Sypro-Orange, thermal ramping 0.3 °C per min between 25 and 94 °C, final DMSO 4% v/v; ΔTm against buffer without peptide
[2] = target: T1, WT MCL-1 fusion protein (N-terminal His6-tag fused to amino acids Glu173-Arg329, containing the BH3, BH1 and … (human, UniProt Q07820 173-329)); experiment: as above; conditions: both partners purified
T1 construct: human MCL-1, amino acids E173-R329 (BH3, BH1 and BH2 domains); the results once say 172-329; Cloned into pOPIN F; also called MCL-1 (E173-R329); MCL-1 protein (173-329); source: E. coli BL21 (DE3) pLysS, purified (Ni-NTA IMAC, Superdex 200 SEC)
T1 sequence (Q07820 173-329): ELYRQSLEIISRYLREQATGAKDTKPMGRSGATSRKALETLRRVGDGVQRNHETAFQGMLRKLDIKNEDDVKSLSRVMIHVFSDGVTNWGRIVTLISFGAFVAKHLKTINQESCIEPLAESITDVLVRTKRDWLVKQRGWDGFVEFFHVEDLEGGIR

WT MCL-1 fusion protein (N-terminal His6-tag fused to amino acids Glu173-Arg329, containing the BH3, BH1 and BH2 domains) (human), sequence (Q07820 173-329): as above

| Molecule | binding result [2] | other results |
| --- | --- | --- |
| MCL-1 SAHB (stabilised alpha-helix of BCL-2 domains, designed to mimic the BH3 binding helix of MCL-1) (peptide) | – | thermal shift (ΔTm) at 10 uM [1]: 4 °C |
| RPEIWMTQGLRRLGDEINAYYAR (MCL-1 specific synthetic BH3 peptide; source: synthetic peptide (New England Peptide or GenScript)) [MS-1 (MCL-1 specific synthetic peptide)] | – | temperature shift (ΔTm) at equimolar peptide and MCL-1 [2]: ~10 °C |
| EQWAREIGAQLRRMADDLNA (synthetic BH3 peptide of PUMA; source: synthetic peptide (New England Peptide or GenScript)) [PUMA peptide] | binds | – |
| AELPPEFAAQLRKIGDKVYC (synthetic BH3 peptide of NOXA; source: synthetic peptide (New England Peptide or GenScript)) [NOXA peptide] | binds | – |
